Reference: publication PMC10046738, “Detection of Alpha Fetoprotein Based on AIEgen Nanosphere Labeled Aptamer Combined with Sandwich Structure of Magnetic Gold Nanocomposites”

Molecular target: T1, alpha-fetoprotein (AFP) (UniProt P02771 19-609)
T1 sequence: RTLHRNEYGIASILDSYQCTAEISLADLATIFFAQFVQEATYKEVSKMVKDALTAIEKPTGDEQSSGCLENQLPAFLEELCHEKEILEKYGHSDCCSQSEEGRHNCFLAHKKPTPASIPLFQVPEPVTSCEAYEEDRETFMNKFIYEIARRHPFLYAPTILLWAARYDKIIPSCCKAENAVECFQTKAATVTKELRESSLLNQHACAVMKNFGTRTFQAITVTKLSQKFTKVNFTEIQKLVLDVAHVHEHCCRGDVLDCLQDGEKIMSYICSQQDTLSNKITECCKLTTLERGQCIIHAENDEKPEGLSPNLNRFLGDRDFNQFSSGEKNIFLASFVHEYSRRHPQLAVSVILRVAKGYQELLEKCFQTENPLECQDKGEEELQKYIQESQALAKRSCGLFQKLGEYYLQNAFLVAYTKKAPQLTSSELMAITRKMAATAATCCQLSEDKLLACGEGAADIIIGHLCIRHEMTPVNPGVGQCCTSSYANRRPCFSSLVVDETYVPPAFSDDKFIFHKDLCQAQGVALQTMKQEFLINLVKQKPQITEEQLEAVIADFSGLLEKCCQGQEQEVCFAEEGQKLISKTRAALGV
Test: fluorescence sandwich aptasensor (magnetic capture); capture aptamer on Fe3O4@MPTMS@AuNPs; AFP 0.005-10 ng/mL; LOD 1.429 pg/mL is not a Kd; PBS 10 mM, pH 7.4 (aptamer 1 immobilization); room temperature, 30 min AFP then 30 min aptamer 2; 15 nM aptamer 1, 8 ug/mL AIEgen aptamer 2, 10 ug/mL Fe3O4@MPTMS@AuNPs
Conditions: label: immobilized on Fe3O4@MPTMS@AuNPs

B1: Aptamer 1 (AFP aptamer, 3'-SH) (ssDNA)
DNA: GTGACGCTCCTAACGCTGACTCAGGTGCAGTTCTCGACTCGGTCTTGATGTGGGTCCTGTCCGTCCGAACCAATC
modifications: 3'-thiol
B1: binds.
